Experimental data reported in article PMC7354924.

Key:
[1] = molecular target: bone morphogenetic protein 2 (BMP2) (human) (UniProt P12643); assay: SPR; ProteOn XPR36; BMP2 (570 RU) or GDF5 (470 RU) amine-coupled to a GLC sensor chip; ActR2b ectodomain perfused at 6 µM to 187.5 nM, 100 µl/min; 0.005% (v/v) Tween 20 buffer; Kd from the dose-dependency of equilibrium binding, one-site model; apparent
[2] = molecular target: GDF5 variant Tyr487Lys/Gln489Asp (UniProt P43026); assay: SEC-MALS; RGMBND–GDF5(Tyr487Lys/Gln489Asp)–ActR2bECD complex, 1 mg/mL, Superdex 200 HR 10/30, 0.5 M NaCl, 20 mM Hepes pH 7.4, 21 °C
GDF5 variant Tyr487Lys/Gln489Asp, sequence (P43026 28-501 Y487K/Q489D): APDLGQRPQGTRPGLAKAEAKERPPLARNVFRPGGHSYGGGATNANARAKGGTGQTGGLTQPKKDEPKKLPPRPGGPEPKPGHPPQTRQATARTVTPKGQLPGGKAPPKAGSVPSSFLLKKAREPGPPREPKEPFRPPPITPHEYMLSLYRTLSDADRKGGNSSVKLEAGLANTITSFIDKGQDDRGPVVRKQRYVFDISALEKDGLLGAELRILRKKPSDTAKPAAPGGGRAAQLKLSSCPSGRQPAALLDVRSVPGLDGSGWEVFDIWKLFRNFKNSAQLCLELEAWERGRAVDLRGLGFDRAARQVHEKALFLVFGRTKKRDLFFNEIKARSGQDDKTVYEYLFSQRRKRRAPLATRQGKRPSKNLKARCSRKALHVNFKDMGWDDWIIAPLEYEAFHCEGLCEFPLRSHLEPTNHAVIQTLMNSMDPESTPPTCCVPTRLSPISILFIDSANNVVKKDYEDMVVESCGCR

[3] = molecular target: bone morphogenetic protein 2 (BMP2) (human) (UniProt P12643)
[4] = molecular target: growth differentiation factor 5 (GDF5), wild type (human) (UniProt P43026)
growth differentiation factor 5 (GDF5), wild type (human), sequence (P43026 28-501): as the sequence (P43026 28-501 Y487K/Q489D) above, with K460Y, D462Q counted along it

[5] = molecular target: bone morphogenetic protein 2 (BMP2) (human) (UniProt P12643); assay: SPR; ProteOn XPR36; BMP2 (570 RU), GDF5 (470 RU), TGF-β2 (300 RU) or activin A (350 RU) amine-coupled to a GLC sensor chip; analyte perfused (RGMB 50 to 1.56 nM at 150 or 100 µl/min; BMPR1A 1000 to 31.25 nM at 100 µl/min); 20 mM HEPES pH 7.4, 500 mM NaCl, 3.4 mM EDTA, 0.005% (v/v) Tween 20; 25 °C; Langmuir 1:1 kinetic fit (parameters local for RGMB), Kd = koff/kon; apparent
[6] = molecular target: growth differentiation factor 5 (GDF5), wild type (human) (UniProt P43026); assay: as above
[7] = molecular target: GDF5 variant Arg438Ala (human) (UniProt P43026); assay: SPR; GDF5 wild type (500 RU), Arg438Ala (702 RU) or Arg438Leu (977 RU) amine-coupled to a GLC sensor chip; RGMECD proteins from FreeStyle 293 cells as analytes, six concentrations (log2 series from 40, 30, 20 or 10 nM), 100 µl/min; 20 mM HEPES pH 7.4, 500 mM NaCl, 3.4 mM EDTA, 0.005% (v/v) Tween 20; kon and koff fitted globally, Kd = koff/kon; two independent experiments; apparent
GDF5 variant Arg438Ala (human), sequence (P43026 28-501 R438A): as the sequence (P43026 28-501 Y487K/Q489D) above, with R411A, K460Y, D462Q counted along it

[8] = molecular target: GDF5 variant Arg438Leu (human) (UniProt P43026); assay: as above
GDF5 variant Arg438Leu (human), sequence (P43026 28-501 R438L): as the sequence (P43026 28-501 Y487K/Q489D) above, with R411L, K460Y, D462Q counted along it

[9] = molecular target: growth differentiation factor 5 (GDF5), wild type (human) (UniProt P43026); assay: as above

bone morphogenetic protein 2 (BMP2) (human), sequence (P12643 24-396): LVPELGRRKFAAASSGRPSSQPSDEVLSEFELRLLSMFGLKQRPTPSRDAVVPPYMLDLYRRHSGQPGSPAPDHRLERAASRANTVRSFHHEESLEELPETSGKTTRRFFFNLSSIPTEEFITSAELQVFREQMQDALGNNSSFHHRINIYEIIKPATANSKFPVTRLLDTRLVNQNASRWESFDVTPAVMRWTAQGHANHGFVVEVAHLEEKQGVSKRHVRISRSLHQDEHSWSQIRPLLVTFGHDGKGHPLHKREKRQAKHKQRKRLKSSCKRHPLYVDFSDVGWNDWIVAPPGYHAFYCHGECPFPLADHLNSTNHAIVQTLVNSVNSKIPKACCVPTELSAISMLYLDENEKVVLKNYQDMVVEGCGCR

Binder	Kd [7] [nM]	koff [7] [s⁻¹]	kon [7] [M⁻¹ s⁻¹]	Kd [8] [nM]	koff [8] [s⁻¹]	kon [8] [M⁻¹ s⁻¹]	Kd [9] [nM]	koff [9] [s⁻¹]	kon [9] [M⁻¹ s⁻¹]	also measured
murine activin type-2 receptor ActR2b, soluble ectodomain (residues Gly20 to Glu127) (receptor) GRGEAETRECIYYNANWELERTNQSGLERCEGEQDKRLHCYASWRNSSGTIELVKKGCWLDDFNCYDRQECVATEENPQVYFCCCEGNFCNERFTHLPEPGGPEVTYE	–	–	–	–	–	–	–	–	–	Kd [1]: 2700 nM
ActR2b extracellular domain (ActR2bECD) (receptor) SGRGEAETRECIYYNANWELERTNQSGLERCEGEQDKRLHCYASWRNSSGTIELVKKGCWLDDFNCYDRQECVATEENPQVYFCCCEGNFCNERFTHLPEAGGPEVTYEPPPTAPTLLT	–	–	–	–	–	–	–	–	–	stoichiometry N (ActR2b per GDF5 dimer (2:2:2 by chains)) [2]: 2
soluble mature RGMB (Gln49-Gly412) produced in insect cells (domain or fragment) QQPAQCRIQKCTTDFVSLTSHLNSAVDGFDSEFCKALRAYAGCTQRTSKACRGNLVYHSAVLGISDLMSQRNCSKDGPTSSTNPEVTHDPCNYHSHAGAREHRRGDQNPPSYLFCGLFGDPHLRTFKDNFQTCKVEGAWPLIDNNYLSVQVTNVPVVPGSSATATNKITIIFKAHHECTDQKVYQAVTDDLPAAFVDGTTSGGDSDAKSLRIVERESGHYVEMHARYIGTTVFVRQVGRYLTLAIRMPEDLAMSYEESQDLQLCVNGCPLSERIDDGQGQVSAILGHSLPRTSLVQAWPGYTLETANTQCHEKMPVKDIYFQSCVFDLLTTGDANFTAAAHSALEDVEALHPRKERWHIFPSSG	–	–	–	–	–	–	–	–	–	Fig. S3C: IC50 of soluble RGMB for inhibition of BMP2 (10 nM)-induced alkaline phosphatase expression in ATDC5 cells [3]: > 1500 nM; Fig. S3C: inhibitory constant Ki of soluble RGMB (Cheng-Prusoff, from EC50 and IC50) for BMP2-induced alkaline phosphatase expression in ATDC5 cells [3]: > 500 nM; Fig. S3G: IC50 of soluble RGMB for inhibition of BMP2 (10 nM)-induced SMAD signaling (BRE-Luc reporter) in C3H10T1/2 cells [3]: 41 nM; Fig. S3D: IC50 of soluble RGMB for inhibition of GDF5 (20 nM)-induced alkaline phosphatase expression in ATDC5 cells [4]: 166 nM; Fig. S3D: inhibitory constant Ki of soluble RGMB (from EC50 and IC50) for GDF5-induced alkaline phosphatase expression in ATDC5 cells [4]: 85 nM; Fig. S3H: IC50 of soluble RGMB for inhibition of GDF5 (10 nM)-induced SMAD signaling (BRE-Luc reporter) in C3H10T1/2 cells [4]: 47 nM; koff [5]: 0.011 s⁻¹; kon [5]: 5.3e+06 M⁻¹ s⁻¹; koff [6]: 0.0025 s⁻¹; kon [6]: 1.8e+06 M⁻¹ s⁻¹
full-length extracellular domain of RGMB (Gln49-Gly412) from FreeStyle 293 cells (domain or fragment) QQPAQCRIQKCTTDFVSLTSHLNSAVDGFDSEFCKALRAYAGCTQRTSKACRGNLVYHSAVLGISDLMSQRNCSKDGPTSSTNPEVTHDPCNYHSHAGAREHRRGDQNPPSYLFCGLFGDPHLRTFKDNFQTCKVEGAWPLIDNNYLSVQVTNVPVVPGSSATATNKITIIFKAHHECTDQKVYQAVTDDLPAAFVDGTTSGGDSDAKSLRIVERESGHYVEMHARYIGTTVFVRQVGRYLTLAIRMPEDLAMSYEESQDLQLCVNGCPLSERIDDGQGQVSAILGHSLPRTSLVQAWPGYTLETANTQCHEKMPVKDIYFQSCVFDLLTTGDANFTAAAHSALEDVEALHPRKERWHIFPSSG	1.5	0.0015	1e+06	1.1	0.0011	1e+06	3.7	0.0016	420000	–
full-length extracellular domain of RGMA (Cys48-Arg423) from FreeStyle 293 cells (domain or fragment) CKILKCNSEFWSATSGSHAPASDDTPEFCAALRSYALCTRRTARTCRGDLAYHSAVHGIEDLMSQHNCSKDGPTSQPRLRTLPPAGDSQERSDSPEICHYEKSFHKHSATPNYTHCGLFGDPHLRTFTDRFQTCKVQGAWPLIDNNYLNVQVTNTPVLPGSAATATSKLTIIFKNFQECVDQKVYQAEMDELPAAFVDGSKNGGDKHGANSLKITEKVSGQHVEIQAKYIGTTIVVRQVGRYLTFAVRMPEEVVNAVEDWDSQGLYLCLRGCPLNQQIDFQAFHTNAEGTGARRLAAASPAPTAPETFPYETAVAKCKEKLPVEDLYYQACVFDLLTTGDVNFTLAAYYALEDVKMLHSNKDKLHLYERTRDLPGR	1.7	0.00045	270000	1.4	0.00042	300000	1.3	0.00052	420000	–
full-length extracellular domain of RGMC (Gln36-Asp400) from FreeStyle 293 cells (domain or fragment) QCKILRCNAEYVSSTLSLRGGGSSGALRGGGGGGRGGGVGSGGLCRALRSYALCTRRTARTCRGDLAFHSAVHGIEDLMIQHNCSRQGPTAPPPPRGPALPGAGSGLPAPDPCDYEGRFSRLHGRPPGFLHCASFGDPHVRSFHHHFHTCRVQGAWPLLDNDFLFVQATSSPMALGANATATRKLTIIFKNMQECIDQKVYQAEVDNLPVAFEDGSINGGDRPGGSSLSIQTANPGNHVEIQAAYIGTTIIIRQTAGQLSFSIKVAEDVAMAFSAEQDLQLCVGGCPPSQRLSRSERNRRGAITIDTARRLCKEGLPVEDAYFHSCVFDVLISGDPNFTVAAQAALEDARAFLPDLEKLHLFPSD	2.3	0.00026	160000	2.2	0.00041	190000	2.8	0.00064	240000	–
